Experimental data reported in PMC8610599.

Assays:
Experiment in all cases: BLI
PGDM1400 = details: parent: est. 0.40; read off a plot
PGT121 = details: parent: est. 0.20; read off a plot
PGT151 = details: parent: est. 1.6; read off a plot
VRC01 = details: parent: est. 0.38; read off a plot

Substance	response (AUC (2G12 normalized)) (PGDM1400)	response (AUC (2G12 normalized)) (PGT121)	response (AUC (2G12 normalized)) (PGT151)	response (AUC (2G12 normalized)) (VRC01)
LAI SOSIP.664 trimer F53V; Q567R	0.35	0.22	1.5	0.4
LAI SOSIP.664 trimer R585F	0.35	0.15	1.5	0.4
LAI SOSIP.664 trimer Q590A; S164G	0.2	0.17	1.4	0.7
LAI SOSIP.664 trimer Q590A	0.35	0.18	1.5	0.62
LAI SOSIP.664 trimer Y586W; Q567R	0.3	0.2	1.5	0.55
LAI SOSIP.664 trimer R585F; Q567R	0.35	0.17	1.5	0.4
LAI SOSIP.664 trimer S164G	0.25	0.22	1.5	0.47
LAI SOSIP.664 trimer Q567R	0.3	0.22	1.6	0.42
LAI SOSIP.664 trimer F53V	0.33	0.18	1.5	0.45
LAI SOSIP.664 trimer Y586W	0.42	0.18	1.3	0.88
